One assay concerns the target T1, His-MST1 (aa301-487) (UniProt Q13043 301-487).
T1 construct: MST1 kinase, amino acids 301-487 (holds the C-terminal SARAH domain, aa431-487); also called SARAH domain of MST1; source: E. coli BL21, purified (Ni-NTA agarose)
T1 sequence (looked up): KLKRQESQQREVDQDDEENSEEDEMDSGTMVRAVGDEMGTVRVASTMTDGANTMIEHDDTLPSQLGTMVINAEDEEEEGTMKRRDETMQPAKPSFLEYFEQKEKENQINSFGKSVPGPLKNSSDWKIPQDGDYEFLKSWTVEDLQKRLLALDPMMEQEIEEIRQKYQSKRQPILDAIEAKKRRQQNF
Description: pull-down; 2 µg GST or GST-MISP (aa352-524) incubated with 2 µg His-MST1 (aa301-487) or His-MST2 (aa279-491) for 12 h at 4 °C; SDS-PAGE and Coomassie blue staining. The note with it: both partners purified.

In the next assay the target is T2, His-MST2 (aa279-491) (UniProt Q13188 279-491).
T2 construct: MST2 kinase, amino acids 279-491 (holds the C-terminal SARAH domain); also called SARAH domain of MST2; source: E. coli BL21, purified (Ni-NTA agarose)
T2 sequence (looked up): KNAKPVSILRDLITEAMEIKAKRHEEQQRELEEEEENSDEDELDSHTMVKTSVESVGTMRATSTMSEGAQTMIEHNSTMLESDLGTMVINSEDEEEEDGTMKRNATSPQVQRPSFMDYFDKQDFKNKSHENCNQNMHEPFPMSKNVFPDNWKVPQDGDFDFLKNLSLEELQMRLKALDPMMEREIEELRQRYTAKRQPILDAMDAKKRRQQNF
Described as above. The note with it: both partners purified.

Data on one molecule can be found in article PMC12021056, “MISP Suppresses Ferroptosis via MST1/2 Kinases to Facilitate YAP Activation in Non‐Small Cell Lung Cancer” (Advanced Science, 2025).

B1: GST-MISP (aa352-524) (domain or fragment, UniProt Q8IVT2 352-524, looked up)
chain: QRDIVQETQREEDHRREGLHVGRASTPDWVSEGPQPGLRRALSSDSILSPAPDARAADPAPEVRKVNRIPPDAYQPYLSPGTPQLEFSAFGAFGKPSSLSTAEAKAATSPKATMSPRHLSESSGKPLSTKQEASKPPRGCPQANRGVVRWEYFRLRPLRFRAPDEPQQAQVPH
notes: source: E. coli BL21, purified (glutathione S-transferase agarose)
As for B1, the binding result with His-MST1 (aa301-487) and with His-MST2 (aa279-491) was “binds” in each case.
